Experiment [1] has as its target VvGH17 C-terminal-truncated mutant ΔC466 (Vibrio vulnificus). In words: native gel or EMSA; blue native PAGE, 5–10% gradient gel, 4 °C, 150 V for 3.5 h; 50 mM tricine, 15 mM bis-Tris/HCl, pH 7; cathode buffer with 0.02% Coomassie blue G250; monomer to trimer.
Experiment [2] deals with glycoside hydrolase family 17 β-1,3-glucanase of Vibrio vulnificus (VvGH17), wild type (Vibrio vulnificus). The description is as above.

As usually defined, the stoichiometry N is a count of units in the complex or per binding partner. The substance “VvGH17 C-terminal-truncated mutant ΔC466 (domain or fragment)” showed a stoichiometry N in experiment [1] of 3.

In the case of “glycoside hydrolase family 17 β-1,3-glucanase of Vibrio vulnificus (VvGH17), wild type (enzyme)”, the stoichiometry N in experiment [2] came out at 3.

(Values after PMC9026390.)
